Read-outs that look alike come from different tables or passages of the source. Where no end group is shown, it is not given here.
B1: S1ED: recombinant mouse Sdc1 ectodomain (amino acids 18-251), expressed in bacteria as GST fusion or 6×His-tagged protein (protein)
chain: QPALPQIVAVNVPPEDQDGSGDDSDNFSGSGTGALPDTLSRQTPSTWKDVWLLTATPTAPEPTSSNTETAFTSVLPAGEKPEEGEPVLHVEAEPGFTARDKEKEVTTRPRETVQLPITQRASTVRVTTAQAAVTSHPHGGMQPGLHETSAPTAPGQPDHQPPRVEGGGTSVIKEVVEDGTANQLPAGEGSGEQDFTFETSGENTAVAAVEPGLRNQPPVDEGATGASQSLLDRK
modifications: left off: a dimerising Fc or GST
notes: recombinant mouse Sdc1 ectodomain (amino acids 18-251), expressed in bacteria as GST fusion or 6×His-tagged protein

Test system: human dermal microvascular endothelial cells (HMEC-1)
Type: cell-based
Description: FIGS. 6A-6H—Inhibition of B82L fibroblast and HMEC-1 cell attachment and spreading on VN by synstatin82-130. B82L fibroblasts, which rely on the αvβ5 integrin for attachment to VN, and human dermal microvascular endothelial cells, which rely on both the αvβ3 and αvβ5 integrins for attachment to VN, were plated in the absence of peptide (FIGS. 6A, 6E) or in the presence of 0.1 (FIGS. 6B, 6F), 0.3 (FIGS. 6C, 6G) or 1 μM (FIGS. 6D, 6H) synstatin82-130 for 2 hr and processed as described in FIG. 2.
FIGS. 10A-10D—Dependence of HMEC cell attachment and spreading on integrin activation by Sdc1 and its inhibition by SSTN. (FIG. 10A) HMECs were plated for 2 hr either on Sdc1-specific antibody B-B4 to engage Sdc1 or on VN (10 μg/ml coating concentration) to engage the αvβ3 and αvβ5 integrins. Blocking antibodies LM609 (10 μg/ml, specific for αvβ3) and P1F6 (10 μg/ml, specific for αvβ5), SSTN (0.5 μM) or recombinant mouse Sdc1 ectodomain (mS1ED, 5 μM) were added. The ligand mimetic antibody WOW1 was used to detect activated αvβ3 integrin on cells plated on B-B4. (FIG. 10B) HMECs were treated with siRNA oligo specific for human Sdc1 for 48 hr prior to plating on VN. Sdc1 expression was quantified by flow cytometry using human Sdc1-specific mAb B-B4 or a control mouse IgG. (FIG. 10C-10D) The percentage of cell attaching or attaching and spreading was quantified for HMECs, HAEC and MAECs plated on VN for 24 hr in the presence of mS1ED or SSTN, or after siRNA silencing of Sdc1 expression in the presence of mAb LM609 to block αvβ3 integrin, P1F6 to block αvβ5 integrin, or both antibodies.
FIG. 14—Activity of SSTN peptides. A diagram of SSTN82-130 used in our experiments is shown. The gray letters designate amino acids that are identical or highly conserved across species (mouse, human, rat, hamster). Shorter peptides have been tested using HMEC-1 endothelial cells for inhibition of […] mediated cell attachment and spreading in comparison to SSTN82-130.
Cell adhesion and spreading assays were performed with modification to the previous procedures (Lebakken and Rapraeger, 1996. Briefly, human plasma vitronectin or fibronectin at 10-30 μg/ml were applied to nitrocellulose-coated ten well slides (Erie Scientific) and incubated for 1-2 h at 37° C. Slides were blocked with 1.0% heat-denatured bovine serum albumin for a minimum of 30 min at 37° C. Cells were detached from the substratum using 5 mM EDTA in Tris-buffered saline and resuspended in HEPES-buffered culture medium containing 0.1% heat-denatured BSA. Cells were plated at a density of 15,000 cells per well and allowed to attach and spread for 2 h prior to fixation in 4% paraformaldehyde in CMF-PBS. For fluorescence microscopy, fixed cells were permeabilized in 0.2% Triton X-100, labeled with rhodamine-conjugated phalloidin and analyzed using fluorescence microscopy. For testing inhibition by recombinant mScd-1ED and synstatin82-130, cells were pre-incubated 10 min before plating in the presence of the inhibitor. […] LM609 was used as a specific block to αvβ3 and P1F6 was used as a specific blocker of αvβ5.
Finally, the inventors have examined HMEC-1 cells, which are immortalized human dermal microvascular endothelial cells. Microvascular endothelial cells are regarded as being the main source of endothelial cells that carry out angiogenesis in vivo. The HMEC-1 cells grown in serum-containing culture medium express Sdc1 (as noted earlier) and also express active αvβ3 and αvβ5 integrins. […]

Molecule	IC50 (6 h) [nM]	IC50 (HMEC-1, αvβ3 and αvβ5 integrin-dependent, read-out: IC50, spreading on VN) [nM]	reduction of cell spreading (HMECs on vitronectin, 1-3 μM)	spreading on vitronectin (HMECs, 5.0 μM)
SNTETAFTSVLPAGEKPEEGEPVLHVEAEPGFTARDKEKEVTTRPRETV [synstatin82-130]	~100	–	–	–
B1	–	3000 to 10000	80-90%	blocks spreading as effectively as the combined antibody treatment
